For one substance, sensitivity to daratumumab-mediated fratricide, unmodified control (CD38-expressing) NK cells results are on record in patent US20220401482A1, “GENERATION OF CD38 KNOCK-OUT PRIMARY AND EXPANDED HUMAN NK CELLS” (RESEARCH INSTITUTE AT NATIONWIDE CHILDREN'S HOSPITAL, priority 2019, published 2022).

This test addresses CD38 (cluster of differentiation 38) on human NK cells and multiple myeloma cells (human) (UniProt P28907). As to the kind of experiment: cell-based or functional assay.

For daratumumab (antibody), the sensitivity to daratumumab-mediated fratricide, unmodified control (CD38-expressing) NK cells turned out to be 77%.
